Results published in article PMC5733473.

Test system: SinR (Bacillus subtilis)
Experiment: EMSA
Details: EMSA: 15 mM Tris-Cl, 4 mM MOPS-KOH, 15 mM KCl, 50 mM NaCl, 0.8 mM MgCl2, 0.6 mM DTT, 12.5% glycerol, pH 7.8, 1 ug poly(dI-dC) in 16 ul, 20 fmol probe, 28 C …

Substance: Fm0 PkinB(-39/+104)
- Kd (SinR-2 site, binding stated (also given as >100 nM)): > 400 nM

Substance: PkinB(-31/+104)
- Kd (SinR-2 site, binding stated): > 100 nM

Substance: PkinB(-55/+10) WT
- Kd (SinR-2 site, binding stated): > 100 nM

Substance: PkinB(-75/+10) G-45A
- binding signal (fold lower affinity) (SinR-1 site (upper band)): 2

Substance: PkinB(-75/+10) delta5 G-45A
- Kd (SinR-2 site (SinR-1 not bound)): 10 nM

Substance: PkinB(-75/-7) delta5 G-45A
- Kd (SinR-2 site): 10 nM

Substance: Rm0 PkinB(-124/-38)
- Kd (SinR-1 site): 50 nM
